FireProtDB (doi:10.1021/bi036049+)
Where “and” joins values, the source holds several entries; their conditions need not be identical. Equal values may be shown once.

Details: Thermal, CD, whole UniProt chain shown

B1: Iron-sulfur cluster assembly protein CyaY wild type, P27838 (protein)
chain: MNDSEFHRLADQLWLTIEERLDDWDGDSDIDCEINGGVLTITFENGSKIIINRQEPLHQVWLATKQGGYHFDLKGDEWICDRSGETFWDLLEQAATQQAGETVSFR
Tm (Escherichia coli (strain K12), pH 6, phosphate 20 mM, reversible: yes (>95%)): 53.5 °C | Tm (Escherichia coli (strain K12), pH 7, Hepes 10 mM, CaCl2 1 mM, reversible: yes (>95%)): 62.7 °C | Tm (Escherichia coli (strain K12), pH 7, Hepes 10 mM, reversible: yes (86%)): 61.2 °C | Tm (Escherichia coli (strain K12), pH 7, Hepes 10 mM, reversible: yes (>95%)): 50.4 °C | Tm (Escherichia coli (strain K12), pH 7, phosphate 20 mM, reversible: yes (>95%)): 53.8 °C | Tm (Escherichia coli (strain K12), pH 7.5, Hepes 10 mM, reversible: yes (86%)): 60.5 °C | Tm (Escherichia coli (strain K12), pH 7.5, Hepes 10 mM, reversible: yes (>95%)): 54.8 °C and 58.3 °C | Tm (Escherichia coli (strain K12), pH 8, phosphate 20 mM, reversible: yes (>95%)): 53.8 °C | Tm (Escherichia coli (strain K12), pH 8, phosphate 200 mM, reversible: yes (>95%)): 45.8 °C

B2: Frataxin homolog, mitochondrial wild type, Q07540 (protein)
chain: MIKRSLASLVRVSSVMGRRYMIAAAGGERARFCPAVTNKKNHTVNTFQKRFVESSTDGQVVPQEVLNLPLEKYHEEADDYLDHLLDSLEELSEAHPDCIPDVELSHGVMTLEIPAFGTYVINKQPPNKQIWLASPLSGPNRFDLLNGEWVSLRNGTKLTDILTEEVEKAISKSQ
Tm (Saccharomyces cerevisiae (strain ATCC 204508 / S288c), pH 6, phosphate 20 mM, reversible: yes (>95%)): 39.9 °C | Tm (Saccharomyces cerevisiae (strain ATCC 204508 / S288c), pH 6, phosphate 150 mM, reversible: yes (>95%)): 49 °C | Tm (Saccharomyces cerevisiae (strain ATCC 204508 / S288c), pH 7, Hepes 10 mM, CaCl2 1 mM, reversible: yes (>95%)): 51.1 °C | Tm (Saccharomyces cerevisiae (strain ATCC 204508 / S288c), pH 7, Hepes 10 mM, CaCl2 150 mM, reversible: yes (>95%)): 52.9 °C | Tm (Saccharomyces cerevisiae (strain ATCC 204508 / S288c), pH 7, Hepes 10 mM, NaCl 150 mM, reversible: yes (>95%)): 44.6 °C | Tm (Saccharomyces cerevisiae (strain ATCC 204508 / S288c), pH 7, Hepes 10 mM, NaF 150 mM, reversible: yes (>95%)): 44.8 °C | Tm (Saccharomyces cerevisiae (strain ATCC 204508 / S288c), pH 7, phosphate 150 mM, reversible: yes (>95%)): 48.6 °C and 53.6 °C | Tm (Saccharomyces cerevisiae (strain ATCC 204508 / S288c), pH 7.2, Hepes 10 mM, NaF 150 mM, reversible: yes (>95%)): 46.9 °C | Tm (Saccharomyces cerevisiae (strain ATCC 204508 / S288c), pH 7.2, Hepes 10 mM, reversible: No): 44.8 °C | Tm (Saccharomyces cerevisiae (strain ATCC 204508 / S288c), pH 7.2, Hepes 10 mM, reversible: yes (47%)): 42.3 °C | Tm (Saccharomyces cerevisiae (strain ATCC 204508 / S288c), pH 7.2, Hepes 10 mM, reversible: yes (86%)): 37.9 °C | Tm (Saccharomyces cerevisiae (strain ATCC 204508 / S288c), pH 7.4, Hepes 10 mM, reversible: yes (>95%)): 35.5 °C | Tm (Saccharomyces cerevisiae (strain ATCC 204508 / S288c), pH 8, phosphate 150 mM, reversible: yes (>95%)): 45.9 °C

B3: Frataxin, mitochondrial wild type, Q16595 (protein)
chain: MWTLGRRAVAGLLASPSPAQAQTLTRVPRPAELAPLCGRRGLRTDIDATCTPRRASSNQRGLNQIWNVKKQSVYLMNLRKSGTLGHPGSLDETTYERLAEETLDSLAEFFEDLADKPYTFEDYDVSFGSGVLTVKLGGDLGTYVINKQTPNKQIWLSSPSSGPKRYDWTGKNWVYSHDGVSLHELLAAELTKALKTKLDLSSLAYSGKDA
Tm (Homo sapiens, pH 6, phosphate 150 mM, reversible: yes (>95%)): 64.9 °C | Tm (Homo sapiens, pH 7, Hepes 10 mM, CaCl2 1 mM, reversible: yes (>95%)): 65.9 °C | Tm (Homo sapiens, pH 7, Hepes 10 mM, NaCl 150 mM, reversible: yes (>95%)): 65 °C | Tm (Homo sapiens, pH 7, Hepes 10 mM, reversible: yes (88%)): 68.6 °C | Tm (Homo sapiens, pH 7, phosphate 20 mM, reversible: yes (>95%)): 60 °C | Tm (Homo sapiens, pH 7, phosphate 150 mM, reversible: yes (>95%)): 65.7 °C
